In patent US7629437 (University of California, dated 2009):
*: point of attachment. CH2Cl = ClC*

Columns and labels:
Assay in all cases: cell-based or functional assay
[1] = target: Recombinant human βII tryptase (human, singly N-glycosylated (non- and single-glycosylation forms observed))
[2] = target: Human thrombin (human, UniProt P00734 328-622)
[3] = target: Recombinant human βI tryptase (human, UniProt Q15661 31-275, N-glycosylated (non-, single-, double- and hyper-glycosylation forms observed))
Recombinant human βI tryptase, sequence (Q15661 31-275): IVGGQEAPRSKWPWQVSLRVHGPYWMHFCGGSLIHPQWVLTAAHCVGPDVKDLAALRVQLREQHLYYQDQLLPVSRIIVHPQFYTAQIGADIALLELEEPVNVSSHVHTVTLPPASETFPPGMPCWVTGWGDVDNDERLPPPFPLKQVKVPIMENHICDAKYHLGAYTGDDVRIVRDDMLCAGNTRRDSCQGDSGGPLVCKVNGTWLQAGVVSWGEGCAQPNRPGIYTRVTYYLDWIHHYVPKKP

[4] = target: Factor Xa
[5] = target: tissue-type plasminogen activator (UniProt P00750 36-562, limits assumed)
tissue-type plasminogen activator, sequence (P00750 36-562 limits assumed): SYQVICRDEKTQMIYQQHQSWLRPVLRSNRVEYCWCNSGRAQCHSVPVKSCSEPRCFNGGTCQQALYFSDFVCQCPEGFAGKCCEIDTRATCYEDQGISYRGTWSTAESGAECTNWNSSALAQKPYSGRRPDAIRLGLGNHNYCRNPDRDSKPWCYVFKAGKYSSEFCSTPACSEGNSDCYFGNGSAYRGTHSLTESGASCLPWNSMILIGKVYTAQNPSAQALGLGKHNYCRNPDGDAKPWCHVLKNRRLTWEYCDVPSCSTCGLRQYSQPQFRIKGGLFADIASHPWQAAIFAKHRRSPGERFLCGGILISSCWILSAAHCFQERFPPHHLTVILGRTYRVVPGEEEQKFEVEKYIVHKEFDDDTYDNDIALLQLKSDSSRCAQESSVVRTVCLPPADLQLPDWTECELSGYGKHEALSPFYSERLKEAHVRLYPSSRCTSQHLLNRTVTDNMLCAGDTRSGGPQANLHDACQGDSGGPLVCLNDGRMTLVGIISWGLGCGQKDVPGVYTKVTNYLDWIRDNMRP

[6] = target: urokinase plasminogen activator (UniProt P00749 21-431, limits assumed)
[7] = target: Human plasmin (human, UniProt P00747 97-810, limits assumed)
Human plasmin, sequence (P00747 97-810 limits assumed): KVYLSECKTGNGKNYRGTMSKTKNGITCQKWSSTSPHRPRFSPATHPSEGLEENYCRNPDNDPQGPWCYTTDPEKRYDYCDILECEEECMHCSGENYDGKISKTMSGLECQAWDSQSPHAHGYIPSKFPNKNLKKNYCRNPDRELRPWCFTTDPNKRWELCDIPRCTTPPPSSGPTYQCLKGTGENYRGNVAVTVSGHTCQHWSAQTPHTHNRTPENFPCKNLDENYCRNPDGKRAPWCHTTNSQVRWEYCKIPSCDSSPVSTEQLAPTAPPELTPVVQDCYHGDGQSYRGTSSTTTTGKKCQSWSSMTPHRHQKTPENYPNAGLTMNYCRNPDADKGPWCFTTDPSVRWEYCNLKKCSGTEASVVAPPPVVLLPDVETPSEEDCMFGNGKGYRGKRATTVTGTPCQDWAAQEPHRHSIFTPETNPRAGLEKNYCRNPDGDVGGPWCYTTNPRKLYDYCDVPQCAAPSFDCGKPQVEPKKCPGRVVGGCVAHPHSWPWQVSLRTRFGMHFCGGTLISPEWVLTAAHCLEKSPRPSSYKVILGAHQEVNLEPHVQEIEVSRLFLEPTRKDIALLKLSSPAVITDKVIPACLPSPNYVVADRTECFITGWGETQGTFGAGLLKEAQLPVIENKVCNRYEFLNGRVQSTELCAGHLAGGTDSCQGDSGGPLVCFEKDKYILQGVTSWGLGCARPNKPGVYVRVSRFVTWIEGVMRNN

Recombinant human βII tryptase (human, singly N-glycosylated (non- and single-glycosylation forms observed)), sequence (chain, as listed by the source): as the sequence (Q15661 31-275) above, with N102K counted along it

B1: Ac-PRNK-cmk (peptide)
peptide: Ac-PRNK-CH2Cl
SMILES: CC(=O)N1CCC[C@H]1C(=O)N[C@@H](CCCNC(=N)N)C(=O)N[C@@H](CC(N)=O)C(=O)N[C@@H](CCCCN)C(=O)CCl
With B1 the “Percent Inhibition, 10 µM Ac-PRNK-cmk” value [1] was 95%, the “Percent Inhibition, 100 µM Ac-PRNK-cmk” value [1] was 100% and the “Percent Inhibition, 10 µM Ac-PRNK-cmk” value [2] was 0%. For the same binder, the “Percent Inhibition, 100 µM Ac-PRNK-cmk” value [2] was 0%, the “Percent Inhibition, 10 µM Ac-PRNK-cmk” value [3] was 95% and the “Percent Inhibition, 100 µM Ac-PRNK-cmk” value [3] was 100%. For the same binder, the “Percent Inhibition, 10 µM Ac-PRNK-cmk” value [4] was 0%, the “Percent Inhibition, 100 µM Ac-PRNK-cmk” value [4] was 0% and the “Percent Inhibition, 10 µM Ac-PRNK-cmk” value [5] was 0%. For the same binder, the “Percent Inhibition, 100 µM Ac-PRNK-cmk” value [5] was 0%, the “Percent Inhibition, 10 µM Ac-PRNK-cmk” value [6] was 0% and the “Percent Inhibition, 100 µM Ac-PRNK-cmk” value [6] was 34%. The “Percent Inhibition, 10 µM Ac-PRNK-cmk” value [7] was 0% and the “Percent Inhibition, 100 µM Ac-PRNK-cmk” value [7] was 63%.
